Measurements from patent US20040096950.

Tests used:
[1] = target: BACE N->Q R56KR57K no His
[2] = target: BACE WT R56KR57K
[3] = target: BACE N->Q R56KR57K
[4] = target: OM 99

Row | Protein | Cleavage position (ESI-TOF-MS), first intermediate fragment at 30-60 minutes post activation, observed parent mass 45838.30 [1] | Cleavage position (ESI-TOF-MS), fragment formed on digestion beyond 60 minutes, observed parent mass 44228.03 [1] | Cleavage position (ESI-TOF-MS), final fragment, observed parent mass 45783 [2] | Cleavage position (ESI-TOF-MS), first intermediate fragment [2] | Cleavage position (ESI-TOF-MS), final fragment, observed parent mass 46655 [3] | activity (fluorimetric assay with the fluorescent peptide R-E(EDANS)-E-V-N-L-*D-A-E-F-K(DABCYL)-R-OH as substrate) [4]
1 | Clostripain (Cp; EC 3.4.22.8, from Worthington or Sigma C7403) (protein) NKNQKVTIMYYCDADNNLEGSLLNDIEEMKTGYKDSPNLNLIALVDRSPRYSSDEKVLGEDFSDTRLYKIEHNKANRLDGKNEFPEISTTSKYEANMGDPEVLKKFIDYCKSNYEADKYVLIMANHGGGAREKSNPRLNRAICWDDSNLDKNGEADCLYMGEISDHLTEKQSVDLLAFDACLMGTAEVAYQYRPGNGGFSADTLVASSPVVWGPGFKYDKIFDRIKAGGGTNNEDDLTLGGKEQNFDPATITNEQLGALFVEEQRDSTHANGRYDQHLSFYDLKKAESVKRAIDNLAVNLSNENKKSEIEKLRGSGIHTDLMHYFDEYSEGEWVEYPYFDVYDLCEKINKSENFSSKTKDLASNAMNKLNEMIVYSFGDPSNNFKEGKNGLSIFLPNGDKKYSTYYTSTKIPHWTMQSWYNSIDTVKYGLNPYGKLSWCKDGQDPEINKVGNWFELLDSWFDKTNDVTGGVNHYQW | MASMTGGQQMGRGSMAGVLPAHGTQHGIRLPLRSGLGGAPLGLR ↓ | EEPEEPGK ↓ KGSFVEMV . . . | MASMTGGQQMGRGSMAGVLPAHGTQHGIRLPLRSGLGGAPLGLR↓ | MASMTGGQQMGR⇓GSMAGVLPAHGT . . . | MASMTGGQQMGRGSMAGVLPAHGTQHGIRLPLRSGLGGAPLGLR↓ | 
2 | BACE enzyme (refolded recombinant BACE as used in the fluorimetric activity assay) (protein) LPRETDEEPEEPGRRGSFVEMVDNLRGKSGQGYYVEMTVGSPPQTLNILVDTGSSNFAVGAAPHPFLHRYYQRQLSSTYRDLRKGVYVPYTQGKWEGELGTDLVSIPHGPNVTVRANIAAITESDKFFINGSNWEGILGLAYAEIARPDDSLEPFFDSLVKQTHVPNLFSLQLCGAGFPLNQSEVLASVGGSMIIGGIDHSLYTGSLWYTPIRREWYYEVIIVRVEINGQDLKMDCKEYNYDKSIVDSGTTNLRLPKKVFEAAVKSIKAASSTEKFPDGFWLGEQLVCWQAGTTPWNIFPVISLYLMGEVTNQSFRITILPQQYLRPVEDVATSQDDCYKFAISQSSTGTVMGAVIMEGFYVVFDRARKRIGFAVSACHVHDEFRTAAVEGPFVTLDMEDCGYNIPQTDES |  |  |  |  |  | 1 mM OM 99 completely inhibits activity.
